Test results from patent US20190048076A1.

Biological target: CD16 on CD16-transfected BW cells (FcγRIIIA-transfected BW cell line) (UniProt P08637)
Test: FACS on BW-CD16 cells

UniProt P08637, sequence (P08637 17-254 limits assumed): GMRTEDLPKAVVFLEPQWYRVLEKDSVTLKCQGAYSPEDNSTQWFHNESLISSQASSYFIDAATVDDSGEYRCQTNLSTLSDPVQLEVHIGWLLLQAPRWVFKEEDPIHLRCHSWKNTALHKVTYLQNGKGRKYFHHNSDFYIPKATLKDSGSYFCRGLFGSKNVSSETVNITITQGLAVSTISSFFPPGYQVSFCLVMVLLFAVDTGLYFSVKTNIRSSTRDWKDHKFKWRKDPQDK

binding percentage: 99.8%
Substance: rituximab (intact, undigested) (antibody)
